The nanobody polyreactivity screen of Harvey et al. (2022)

Assay: yeast display, Sf9 membrane polyspecificity reagent, FACS + sequencing; frameworks hold sequencing errors
Outline: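 Sorting gates, low and high (top ~1%), were placed on anti-HA fluorescence to track expression and on streptavidin fluorescence to track reagent binding. A clone's polyreactivity label is taken from the gate it came out of. The reagent was 10% biotinylated, detergent-solubilized Sf9 membrane, applied for 1 hour at 4 °C to galactose-induced yeast display cells.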

Sequence	polyreactivity (PSR sort gate)
QVQLVESGGGLVQAGGSLRLSCAASGSIFDPYAMGGYRQAPGKERELVAAISFITGGTYYADSVMGRFTISRDNAMNTVYLQMNSLKPEDTAVYYCNADYFYKGGWVWRDEYWGQGTQVTVSS	high polyreactivity
QVQLVESGGGLVQAGGSLRLSCAASGSIFDPYAMGWYRQAPGKEREFVAAISWSGGSTYYADSVKGRFTISRDNAKNTVYLQMNSLIPEDTAVYYCAAGTQWYSQVYIYYYWGQGTQVTVSS	low polyreactivity
QVQLVESGGGLVQAGGSLRLSCAASGSIFDPYAMGWYRQAPGKERELVAAITASASSTYYADSVKGRFTISRDNAKNTVYLQMYSLKPEDTAVYYCAADRANWEYLLSLLGYDYWGQGTQVTVSS	low polyreactivity
QVQLVESGGGLVQAGGSLRLSCAASGSIFDRNAMGWYRQAPGKERELVAAISVSGGSTYYADSVKGRFTISRDNAKNTVYLQMNSLKPEDTAVYYCAKAGRYANLPYGYWGQGTQVTVSS	high polyreactivity
QVQLVESGGGLVQAGGSLRLSCAASGSIFDRNAMGWYRQAPGKERELVASISYSGGTTYADSVKGRFTISRDNAKNTVYLQMNSLKPEDTAVYYCNAGGVYPRFTFLEQGYEMDYWGQGTQVTVSS	low polyreactivity
QVQLVESGGGLVQAGGSLRLSCAASGSIFDRYAMGWYRKAPGKERELVASITYSGGSTYYADSVKGRFTISRDNAKNTVYLQMKSLKPEDTAVYYCAKVIRLVGDYDYWGQGTQVTVSS	low polyreactivity
QVQLVESGGGLVQAGGSLRLSCAASGSIFDRYAMGWYRQAPGKERELVASISNRGGRTFYADSVKGRFTISRDNAKNTVYLQMNSLKPEDTAVYYCARKTYYTGDFLGREYGYWGQGTQVTVSS	low polyreactivity
QVQLVESGGGLVQAGGSLRLSCAASGSIFDSKAMGWYRQAPGKERELVAAISQGGDDTYYADSVKGRFTISRDNAKNTVYLQMNSLKPEDTAVYYCAAEFFYITGAYDYWGQGTQVTVSS	low polyreactivity
QVQLVESGGGLVQAGGSLRLSCAASGSIFDSNAMGWYRQAPGKERELVADIRGIGGSTYYADSVKGRFTISRDHAKNTVYLQMNSLKPEDTAVYYCNTSTLGGYYWGQGTQVTVSS	low polyreactivity
QVQLVESGGGLVQAGGSLRLSCAASGSIFDSYAMGWYRQAPGKERELVASISSDGGGTYYADSVKGRFTISRDNAKNTVYLQMNSLKPEDTAVYYCARTRTYNSRTMDYWGQGTQVTVSS	low polyreactivity
QVQLVESGGGLVQAGGSLRLSCAASGSIFDSYANGWSRQAPGKERELVAAISSRGGRTYYADSVKGRFTISRDNAKNTVYLQMNSLKPEDTAVYYCAAGLYRYYWYGFDYWGQGTQVTVSS	high polyreactivity
QVQLVESGGGLVQAGGSLRLSCAASGSIFDTYAMGCYRPAPGKERELVAAICWSDTSTYADSVKGRFTISRDNAKNTVYLQMNSMKTEDTAVSYCAADFYYYSYYEYVYWGQGTLVTVSS	low polyreactivity
QVQLVESGGGLVQAGGSLRLSCAASGSIFDTYAMGWYRQAPGKERELVAAITWSGSSTYYADSVKGRFTISRDNAKNTVSLQMNRLKPEDTAVYYCAKRQYLYTSKYDYWGQGTQVTVSS	high polyreactivity
QVQLVESGGGLVQAGGSLRLSCAASGSIFDVNAMGWYRQAPGKERELVAGISWSGGSTYYADSVKGRFTISRDNAKNTVYLQMNSLKPEDTAVYYCNAEGPIYFYFYRGMDYWGQGTQVTVSS	low polyreactivity
QVQLVESGGGLVQAGGSLRLSCAASGSIFDVYAMGWYRQAPGKERELVAAITGGGSTYYADSVKGRFTISRDNAKNSVYLQMNSLKPEDTAVYYCNADRRRRSGGFAGWHFQRNEYWGHGTQVTVSS	low polyreactivity
QVQLVESGGGLVQAGGSLRLSCAASGSIFDVYGMGWYRQAPGKEREFVADITSRGTRTYYADSVKGRFTISRDNAKNTVYLQMNSLKPEDTAVYYCNADRYTAVRAYDYWGQGTQVTVSS	low polyreactivity
QVQLVESGGGLVQAGGSLRLSCAASGSIFDWNAMGWYRQAPGKERELVAAISGTGGTKYADSVKGRFTISRDNAKNTVYLQMNSLKPEDTAVYYCAVGLVPLRDGWHFYYEFDSWGQGTQVTVSS	low polyreactivity
QVQLVESGGGLVQAGGSLRLSCAASGSIFDWYVMGWYRQARGKERELVAAITSTGSTYYADSVKGRFTISRDNAKNTVYLQMNSLKPEDTAVYYCAAQRYSTFTYDYWGQGTQVTVSS	low polyreactivity
QVQLVESGGGLVQAGGSLRLSCAASGSIFDYNAMGWYRQAPGKERELVAGITFIGGSTYYADSVKGRFTISRDNAKNTVYLQMNSLKPEDTAVYYCNADVAPGIFYGYESWGQGTQVSVSS	low polyreactivity
QVQLVESGGGLVQAGGSLRLSCAASGSIFDYNTMGWYRQAPGKERELVATISWSGDSTYYADSVKGRFTISRDNAKNTVYLQMNSLKPEDTAVYYCAKTAPPERYSAWRYSWGQGTQVTVSS	low polyreactivity
QVQLVESGGGLVQAGGSLRLSCAASGSIFDYNTMGWYRQAPGKVRELVAVISGTGGSTYYADSVKGRFTISRVNAKNTVYVQLNSMKPEDTAVYYCAAEGYYSNYHYWGQGTQVTVSS	low polyreactivity
QVQLVESGGGLVQAGGSLRLSCAASGSIFDYYAMGWYRQAPGKETELVAAITYGGGSTYYADSVKGRFTISRDNAKNTVYLQMNSLKPEDTAVYYCNALGENYQFNYWGQGTQVTVSS	low polyreactivity

Sequence	polyreactivity (PSR sort gate)
QVQLVESGGGLVQAGGSLRLSCAASGSIFDYYTMGCYRQAAGKERELVATIRSGDSTNYADSLKGRFTISRDIEMNRVYLQMNSLKPEDTAVYYCAAVDGAYPTLYDYWGQGTQVTVSS	low polyreactivity
QVQLVESGGGLVQAGGSLRLSCAASGSIFDYYVMGWYRQAPGKERELVAAISWSGASTYYADSVKGRFTISRDNAKNTVYLHMNSLKPEDTAVYYCAADYGVNTLIDYDYWGQGTQVTVSS	low polyreactivity
QVQLVESGGGLVQAGGSLRLSCAASGSIFEDNVMGWYRQAPGKEREFVADITAIGGSTYYADSVKGRFTISRDNAKNTVYLQMNSLKPEDTAVDYCAAGFYVDYQLYEYWGQGTQVTVSS	high polyreactivity
QVQLVESGGGLVQAGGSLRLSCAASGSIFEEYAMGWYRHAPGKERELVARIDESGGSTYYADSVKGRFTISRDNAKNTVYLQMNSLKPEDTAVYYCAAERYSDSWGYYSVDEGSWEMDYWGQGTQVTVSS	low polyreactivity
QVQLVESGGGLVQAGGSLRLSCAASGSIFEFYTMGWYRQAPGKERELVAAITASGGSTYYADSVKGRFTISRDNAKNTVYLQMNSLKPEDTAVYYCAARFRKQSKTPSPRRYDSWGQGTQVTVSS	high polyreactivity
QVQLVESGGGLVQAGGSLRLSCAASGSIFEGNARGWYRQAPGKERELVAAISTTGGITYYADAVKGRFTISRANAKNTVDLQKNSLKPEDTAVDYCAADPSQPRNDSSNYDYWGQGTQVTVSS	low polyreactivity
QVQLVESGGGLVQAGGSLRLSCAASGSIFEINAMGWYRQAPGKERELVAAITQSGGITYYADSVKGRFTISRDNAKNTVYLQINSLKPEDTAVYYCNTPLLKRTTRGRERNYWGQGTQVTVSS	low polyreactivity
QVQLVESGGGLVQAGGSLRLSCAASGSIFEIYAMGWYRQAPGKERELVASITWSGGSTYYADSVKGRFTISRDNAKNTVYLQMNSRKPEDTAVYYCATDKLYGRTVRMDYWGQGTQVTVSS	low polyreactivity
QVQLVESGGGLVQAGGSLRLSCAASGSIFEPNAMGWYRQAPGKERELVAAISWNDGDTYYADSVKGRFTISRDNAKNTVYLQMNSLKPVDTAVYYCAAETGYAFDYWGQGTQVTVSS	low polyreactivity
QVQLVESGGGLVQAGGSLRLSCAASGSIFEPYAMGWYRQAPGKERELVAAISSDGTTNYADSVKGRFTISRDNAKNTVYLQMNSLKPEDTAVYYCAADVFNWGYYYWGQGTQVTVSS	low polyreactivity
QVQLVESGGGLVQAGGSLRLSCAASGSIFEPYAMGWYRQAPGKERELVAGIRKSGATTYYADSVKGRFTISRDNAKNTVYLQMNSLKPEDSAVYYCNAVVKSSSRGSISHPGYDYWGQGTQVTVSS	high polyreactivity
QVQLVESGGGLVQAGGSLRLSCAASGSIFEPYTMGWYRQAPGKERELVAAITGSGGSTFYADSVKGRFTISRDNAKNTVYLQMNSLKPEDTAVYYCNAYAYPYTDVDYWGQGTQVTVSS	low polyreactivity
QVQLVESGGGLVQAGGSLRLSCAASGSIFESYAMGCYRQAPGKERELVAAITKRGGSTYYADSVKGRFTISRDNSKNTFYLQMNSLKPEDTAVYYCNARSPGIGPIYDYWGQGTQVTVSS	low polyreactivity
QVQLVESGGGLVQAGGSLRLSCAASGSIFESYAMGWYRQAPGKERELVAAITLSGTSTYYADSVKGRFTISRDNAKNTVYLQMNSLKPEDTAVYYCNAKPIPVRGSYDYWGQGTQVTVSS	low polyreactivity
QVQLVESGGGLVQAGGSLRLSCAASGSIFESYAMGWYRQAPGKEWELVASISGGGSTYYADSVKGRFTISRDNAKNTVYLQMNSLKPEDTAVYYCATVYVRYRQSRLIRYGYWVQGTQVTVSS	high polyreactivity
QVQLVESGGGLVQAGGSLRLSCAASGSIFETNAMGWYRQAPGKERELVAAITGSGGSTYYADSVKGRFTISRDNAKNTVYLQMNSLIPVDTEVYYCAADSSGQSRFGYWGQGTQVTVSS	low polyreactivity
QVQLVESGGGLVQAGGSLRLSCAASGSIFETYAMGWYRQAPGKEWELVAAISRTSGRTYYADSVKGRFTISRDNAKNTVYLQMNSLKPDDTAVYYCAAVVRNPGTYDYWGHGTQVTVSS	high polyreactivity
QVQLVESGGGLVQAGGSLRLSCAASGSIFEVYAMGWYRQAPVKERELVAAIDYSDGTTYYADSVKGRFTISRDNAKNTVYFQMNSLKPEDTAVYYCAADFPGQHYDYWGQGTQVTVSS	low polyreactivity
QVQLVESGGGLVQAGGSLRLSCAASGSIFEWYAMGWYRQAPGKERELVAAISSSGTSTYYADSVKGRFTISRDNAKNTVYLQMNSLKPEDTAVYYCNTDLSRLSQHDYWGQGTQVTVSS	low polyreactivity
QVQLVESGGGLVQAGGSLRLSCAASGSIFEWYAMGWYRQAPGKERELVADISSVGSTYYADSVKGRFTISRDNAKNTVYLQMNSLKPEDTAVYYCNTSYIIWYDSWGQGTQVTVSS	low polyreactivity
QVQLVESGGGLVQAGGSLRLSCAASGSIFEYNGMGWSRQAPGKERELVAAITTTGTTDYADSVKGRFTISRDNAKNTVYLQMNSLKPEDTAVYYCAADYTYYYKGEYDYWGQGTQVTVSS	low polyreactivity
